Measured values from publication PMC9482650, “Quantitative fragmentomics allow affinity mapping of interactomes” (Nature Communications, 2022).

Assays:
Assay in all cases: holdup assay
Design in all cases: key: below the threshold = too weak to quantify, mostly under pKd 3.1 to 4
Conditions in all cases: plain residues with an end cap or a label only (N-terminal biotin on a linker: ado-ado)
PDZD2_2, O15018 = molecular target: T1, PDZD2_2, O15018
T1 sequence (O15018 329-429, limits assumed, looked up): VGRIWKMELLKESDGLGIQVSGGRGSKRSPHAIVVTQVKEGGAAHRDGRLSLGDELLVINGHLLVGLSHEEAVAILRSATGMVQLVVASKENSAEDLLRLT

FRMPD2_3, Q68DX3 = molecular target: FRMPD2_3, Q68DX3
SCRIB_2, Q14160 = molecular target: SCRIB_2, Q14160
Inadl_5, Q8NI35 = molecular target: Inadl_5, Q8NI35
HTRA3, P83110 = molecular target: T2, HTRA3, P83110
T2 sequence (P83110 354-453, limits assumed, looked up): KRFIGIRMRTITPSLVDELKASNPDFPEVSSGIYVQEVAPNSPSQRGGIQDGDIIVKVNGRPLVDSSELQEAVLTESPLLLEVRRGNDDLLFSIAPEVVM

TJP1_2, Q07157 = molecular target: TJP1_2, Q07157
Inadl_8, Q8NI35 = molecular target: Inadl_8, Q8NI35
RHPN1, Q8TCX5 = molecular target: T3, RHPN1, Q8TCX5
T3 sequence (Q8TCX5 508-602, limits assumed, looked up): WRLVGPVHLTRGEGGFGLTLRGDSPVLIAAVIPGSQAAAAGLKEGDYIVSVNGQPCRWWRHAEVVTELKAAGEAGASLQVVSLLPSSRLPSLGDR

MAGI2_6, Q86UL8 = molecular target: MAGI2_6, Q86UL8
LIN7A, O14910 = molecular target: T4, LIN7A, O14910
T4 sequence (O14910 103-200, limits assumed, looked up): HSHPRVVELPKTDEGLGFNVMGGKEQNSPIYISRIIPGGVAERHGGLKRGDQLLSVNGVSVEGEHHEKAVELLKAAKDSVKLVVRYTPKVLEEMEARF

GRID2IP_1, A4D2P6 = molecular target: GRID2IP_1, A4D2P6
FRMPD2_2, Q68DX3 = molecular target: FRMPD2_2, Q68DX3
MAGI3_2, Q5TCQ9 = molecular target: MAGI3_2, Q5TCQ9
MPDZ_5, O75970 = molecular target: T5, MPDZ_5, O75970
T5 sequence (O75970 695-796, limits assumed, looked up): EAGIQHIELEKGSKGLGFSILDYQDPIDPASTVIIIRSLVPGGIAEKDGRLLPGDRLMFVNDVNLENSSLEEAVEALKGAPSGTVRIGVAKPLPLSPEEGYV

SNTB1, Q13884 = molecular target: T6, SNTB1, Q13884
T6 sequence (Q13884 107-205, limits assumed, looked up): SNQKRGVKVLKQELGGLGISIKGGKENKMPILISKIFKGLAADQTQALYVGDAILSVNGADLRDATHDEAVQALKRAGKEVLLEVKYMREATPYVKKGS

GRIP1_7, Q9Y3R0 = molecular target: T7, GRIP1_7, Q9Y3R0
T7 sequence (Q9Y3R0 999-1096, limits assumed, looked up): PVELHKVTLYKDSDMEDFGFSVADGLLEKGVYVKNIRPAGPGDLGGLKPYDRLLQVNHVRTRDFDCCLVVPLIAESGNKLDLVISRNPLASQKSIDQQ

NHERF3_3, Q5T2W1 = molecular target: T8, NHERF3_3, Q5T2W1
T8 sequence (Q5T2W1 238-333, limits assumed, looked up): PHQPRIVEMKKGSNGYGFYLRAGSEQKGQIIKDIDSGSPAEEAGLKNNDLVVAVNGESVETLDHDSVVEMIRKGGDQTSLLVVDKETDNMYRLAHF

DLG4_1, P78352 = molecular target: DLG4_1, P78352
NHERF3_4, Q5T2W1 = molecular target: T9, NHERF3_4, Q5T2W1
T9 sequence (Q5T2W1 373-468, limits assumed, looked up): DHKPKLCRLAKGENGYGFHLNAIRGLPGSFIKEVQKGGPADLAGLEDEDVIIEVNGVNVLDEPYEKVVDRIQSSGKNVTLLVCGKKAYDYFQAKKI

CASK, O14936 = molecular target: CASK, O14936
MAGI1_1, Q96QZ7 = molecular target: MAGI1_1, Q96QZ7
DLG3_2, Q92796 = molecular target: T10, DLG3_2, Q92796
T10 sequence (Q92796 221-321, limits assumed, looked up): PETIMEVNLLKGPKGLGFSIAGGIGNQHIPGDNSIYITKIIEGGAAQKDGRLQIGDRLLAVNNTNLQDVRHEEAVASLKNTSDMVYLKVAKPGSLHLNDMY

DLG3_1, Q92796 = molecular target: T11, DLG3_1, Q92796
T11 sequence (Q92796 125-227, limits assumed, looked up): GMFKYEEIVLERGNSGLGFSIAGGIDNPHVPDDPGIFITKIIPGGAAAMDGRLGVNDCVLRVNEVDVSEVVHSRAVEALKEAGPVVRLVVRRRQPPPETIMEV

GORASP2, Q9H8Y8 = molecular target: GORASP2, Q9H8Y8
GORASP1, Q9BQQ3 = molecular target: GORASP1, Q9BQQ3
FRMPD2_1, Q68DX3 = molecular target: FRMPD2_1, Q68DX3
LAP2, Q96RT1 = molecular target: LAP2, Q96RT1
Sequence of LAP2, Q96RT1 (Q96RT1 other isoform, or with tags, fused parts or gaps): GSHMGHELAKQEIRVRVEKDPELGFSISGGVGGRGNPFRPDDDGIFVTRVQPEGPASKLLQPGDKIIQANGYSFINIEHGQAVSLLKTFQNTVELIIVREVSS

Sequence of CASK, O14936 (O14936 487-570): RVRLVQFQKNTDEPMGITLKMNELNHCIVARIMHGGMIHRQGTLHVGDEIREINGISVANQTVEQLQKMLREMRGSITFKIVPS
Sequence of Inadl_8, Q8NI35 (Q8NI35 1425-1530): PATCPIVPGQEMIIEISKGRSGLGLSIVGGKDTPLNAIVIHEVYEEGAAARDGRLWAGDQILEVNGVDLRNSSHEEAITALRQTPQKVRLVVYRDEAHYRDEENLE
Sequence of MAGI2_6, Q86UL8 (Q86UL8 1141-1229): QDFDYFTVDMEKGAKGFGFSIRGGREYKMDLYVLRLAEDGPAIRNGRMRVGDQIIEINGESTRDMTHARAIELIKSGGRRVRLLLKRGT
Sequence of MAGI1_1, Q96QZ7 (Q96QZ7 1-106): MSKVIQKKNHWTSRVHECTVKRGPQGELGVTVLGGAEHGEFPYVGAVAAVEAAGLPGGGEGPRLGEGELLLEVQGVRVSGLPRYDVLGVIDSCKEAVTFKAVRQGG
Sequence of FRMPD2_2, Q68DX3 (Q68DX3 944-1038): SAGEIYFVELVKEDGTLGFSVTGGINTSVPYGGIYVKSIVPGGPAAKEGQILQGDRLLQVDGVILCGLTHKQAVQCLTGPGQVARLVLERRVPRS
Sequence of DLG4_1, P78352 (P78352 62-152): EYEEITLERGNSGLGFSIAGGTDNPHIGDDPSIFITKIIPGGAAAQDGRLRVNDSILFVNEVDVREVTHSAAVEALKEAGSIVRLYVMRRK
Sequence of GRID2IP_1, A4D2P6 (A4D2P6 1-87): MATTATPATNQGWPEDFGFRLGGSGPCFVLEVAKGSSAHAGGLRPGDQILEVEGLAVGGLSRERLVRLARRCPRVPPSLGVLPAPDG
Sequence of Inadl_5, Q8NI35 (Q8NI35 673-780): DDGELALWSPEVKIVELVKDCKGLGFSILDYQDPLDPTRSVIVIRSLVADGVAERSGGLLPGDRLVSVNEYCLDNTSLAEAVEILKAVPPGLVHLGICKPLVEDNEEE
Sequence of FRMPD2_3, Q68DX3 (Q68DX3 1073-1166): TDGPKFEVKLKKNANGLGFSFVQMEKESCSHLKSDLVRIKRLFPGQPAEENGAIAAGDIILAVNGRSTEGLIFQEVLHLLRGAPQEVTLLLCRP
Sequence of FRMPD2_1, Q68DX3 (Q68DX3 770-861): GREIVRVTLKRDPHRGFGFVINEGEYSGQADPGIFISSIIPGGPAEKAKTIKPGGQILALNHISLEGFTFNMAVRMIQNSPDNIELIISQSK
Sequence of TJP1_2, Q07157 (Q07157 181-274): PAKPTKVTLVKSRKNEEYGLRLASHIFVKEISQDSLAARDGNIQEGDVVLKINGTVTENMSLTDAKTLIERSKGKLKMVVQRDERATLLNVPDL
Sequence of GORASP1, Q9BQQ3 (Q9BQQ3 1-208): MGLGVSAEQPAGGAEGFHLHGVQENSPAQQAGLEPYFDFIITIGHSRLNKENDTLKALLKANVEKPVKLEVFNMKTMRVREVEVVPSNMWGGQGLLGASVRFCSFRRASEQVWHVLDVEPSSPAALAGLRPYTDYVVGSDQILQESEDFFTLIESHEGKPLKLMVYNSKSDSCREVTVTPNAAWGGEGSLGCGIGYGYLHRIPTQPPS
Sequence of SCRIB_2, Q14160 (Q14160 857-960): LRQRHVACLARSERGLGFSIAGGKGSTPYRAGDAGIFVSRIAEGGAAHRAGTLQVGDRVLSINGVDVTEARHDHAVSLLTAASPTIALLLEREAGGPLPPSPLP
Sequence of MAGI3_2, Q5TCQ9 (Q5TCQ9 398-503): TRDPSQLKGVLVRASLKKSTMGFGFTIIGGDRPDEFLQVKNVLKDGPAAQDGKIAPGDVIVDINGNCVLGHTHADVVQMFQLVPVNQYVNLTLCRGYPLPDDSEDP

## ARESQKVSHV [FAM110B, Q8TC76]
PDZD2_2, O15018
  pKd: 5.17
FRMPD2_3, Q68DX3
  pKd: below the threshold
SCRIB_2, Q14160
  pKd: below the threshold
Inadl_5, Q8NI35
  pKd: below the threshold
HTRA3, P83110
  pKd: below the threshold
TJP1_2, Q07157
  pKd: below the threshold
Inadl_8, Q8NI35
  pKd: 4.8
RHPN1, Q8TCX5
  pKd: 4.72
MAGI2_6, Q86UL8
  pKd: 4.43
LIN7A, O14910
  pKd: below the threshold
GRID2IP_1, A4D2P6
  pKd: below the threshold
FRMPD2_2, Q68DX3
  pKd: 4.31
MAGI3_2, Q5TCQ9
  pKd: 5.28
MPDZ_5, O75970
  pKd: below the threshold
SNTB1, Q13884
  pKd: 4.52
GRIP1_7, Q9Y3R0
  pKd: below the threshold
NHERF3_3, Q5T2W1
  pKd: below the threshold
DLG4_1, P78352
  pKd: 4.06
NHERF3_4, Q5T2W1
  pKd: below the threshold
CASK, O14936
  pKd: below the threshold
MAGI1_1, Q96QZ7
  pKd: below the threshold
DLG3_2, Q92796
  pKd: 4.22
DLG3_1, Q92796
  pKd: below the threshold
GORASP2, Q9H8Y8
  pKd: 4.88
GORASP1, Q9BQQ3
  pKd: 3.8
FRMPD2_1, Q68DX3
  pKd: below the threshold
LAP2, Q96RT1
  pKd: 3.66

## SPDRDRESIV [SCN5A, Q14524]
PDZD2_2, O15018
  pKd: 5.4
FRMPD2_3, Q68DX3
  pKd: 3.48
SCRIB_2, Q14160
  pKd: below the threshold
Inadl_5, Q8NI35
  pKd: below the threshold
HTRA3, P83110
  pKd: below the threshold
TJP1_2, Q07157
  pKd: 3.49
Inadl_8, Q8NI35
  pKd: 3.85
RHPN1, Q8TCX5
  pKd: 4.89
MAGI2_6, Q86UL8
  pKd: 3.67
LIN7A, O14910
  pKd: below the threshold
GRID2IP_1, A4D2P6
  pKd: below the threshold
FRMPD2_2, Q68DX3
  pKd: 3.76
MAGI3_2, Q5TCQ9
  pKd: 4.9
MPDZ_5, O75970
  pKd: below the threshold
SNTB1, Q13884
  pKd: 5.66
GRIP1_7, Q9Y3R0
  pKd: below the threshold
NHERF3_3, Q5T2W1
  pKd: below the threshold
DLG4_1, P78352
  pKd: 4.46
NHERF3_4, Q5T2W1
  pKd: below the threshold
CASK, O14936
  pKd: below the threshold
MAGI1_1, Q96QZ7
  pKd: below the threshold
DLG3_2, Q92796
  pKd: 4.57
DLG3_1, Q92796
  pKd: 3.9
GORASP2, Q9H8Y8
  pKd: 3.88
GORASP1, Q9BQQ3
  pKd: 3.71
FRMPD2_1, Q68DX3
  pKd: below the threshold
LAP2, Q96RT1
  pKd: below the threshold

## TNSRHGETTV [FZD2, Q14332]
PDZD2_2, O15018
  pKd: 4.18
FRMPD2_3, Q68DX3
  pKd: 3.62
SCRIB_2, Q14160
  pKd: 4.42
Inadl_5, Q8NI35
  pKd: below the threshold
HTRA3, P83110
  pKd: below the threshold
TJP1_2, Q07157
  pKd: below the threshold
Inadl_8, Q8NI35
  pKd: 3.57
RHPN1, Q8TCX5
  pKd: 4.16
MAGI2_6, Q86UL8
  pKd: 4.26
LIN7A, O14910
  pKd: 3.85
GRID2IP_1, A4D2P6
  pKd: below the threshold
FRMPD2_2, Q68DX3
  pKd: 3.54
MAGI3_2, Q5TCQ9
  pKd: 5.11
MPDZ_5, O75970
  pKd: below the threshold
SNTB1, Q13884
  pKd: 4.75
GRIP1_7, Q9Y3R0
  pKd: below the threshold
NHERF3_3, Q5T2W1
  pKd: below the threshold
DLG4_1, P78352
  pKd: 4.85
NHERF3_4, Q5T2W1
  pKd: below the threshold
CASK, O14936
  pKd: below the threshold
MAGI1_1, Q96QZ7
  pKd: below the threshold
DLG3_2, Q92796
  pKd: 4.72
DLG3_1, Q92796
  pKd: 4.33
GORASP2, Q9H8Y8
  pKd: 4.19
GORASP1, Q9BQQ3
  pKd: 3.88
FRMPD2_1, Q68DX3
  pKd: 3.6
LAP2, Q96RT1
  pKd: 4.02

## STKRKLASAV [NCF1, P14598]
PDZD2_2, O15018
  pKd: 4.51
FRMPD2_3, Q68DX3
  pKd: below the threshold
SCRIB_2, Q14160
  pKd: below the threshold
Inadl_5, Q8NI35
  pKd: below the threshold
HTRA3, P83110
  pKd: below the threshold
TJP1_2, Q07157
  pKd: below the threshold
Inadl_8, Q8NI35
  pKd: 4.46
RHPN1, Q8TCX5
  pKd: below the threshold
MAGI2_6, Q86UL8
  pKd: below the threshold
LIN7A, O14910
  pKd: below the threshold
GRID2IP_1, A4D2P6
  pKd: below the threshold
FRMPD2_2, Q68DX3
  pKd: below the threshold
MAGI3_2, Q5TCQ9
  pKd: 5.35
MPDZ_5, O75970
  pKd: below the threshold
SNTB1, Q13884
  pKd: below the threshold
GRIP1_7, Q9Y3R0
  pKd: below the threshold
NHERF3_3, Q5T2W1
  pKd: below the threshold
DLG4_1, P78352
  pKd: below the threshold
NHERF3_4, Q5T2W1
  pKd: below the threshold
CASK, O14936
  pKd: below the threshold
MAGI1_1, Q96QZ7
  pKd: below the threshold
DLG3_2, Q92796
  pKd: 4.45
DLG3_1, Q92796
  pKd: 3.49
GORASP2, Q9H8Y8
  pKd: below the threshold
GORASP1, Q9BQQ3
  pKd: below the threshold
FRMPD2_1, Q68DX3
  pKd: below the threshold
LAP2, Q96RT1
  pKd: below the threshold
